{"source": "the nanobody polyreactivity screen of Harvey et al. (2022)", "data": [{"assay": "yeast display, Sf9 membrane polyspecificity reagent, FACS + sequencing; frameworks hold sequencing errors", "method_in_brief": "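Genes from sorted yeast were amplified by colony PCR, read by MiSeq 2 × 250 sequencing and filtered on CDR length. These cells carried a synthetic nanobody library in Saccharomyces cerevisiae BJ5465 and were sorted by FACS into low and high (top ~1%) gates on anti-HA and streptavidin fluorescence. Polyreactivity is labelled according to the gate of origin.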", "values": [{"sequence": "QVQLVESGGGLVQAGGSLRLSCAASGYNFWYNGMGWYRQAPGKERELVAAITSSSGTTYYADSVKGRFTISRDNAKTTVYLQMNSLKPVDTSVYYFNAVLSSNTQCRYPGDYWGQGTQVTVSS", "polyreactivity (PSR sort gate)": "low polyreactivity"}, {"sequence": "QVQLVESGGGLVQAGGSLRLSCAASGYSFRLYAMGWYRQAPAKEWELVAAISKSGGSTYYADSVKGRFTISRDNANNTVYLQMNRLKPEETADYYCAADGVARYQKGQYDYWGQGTQVTVSS", "polyreactivity (PSR sort gate)": "high polyreactivity"}, {"sequence": "QVQLVESGGGLVQAGGSLRLSCAASGYSFSYNAMGWYRQAPGKERELVAAMSRTGGSTNYADSVKGRFTISRDHAKKTVDLQMNSLKPEDTAVYDCAKRYRYPSWGEYGYWGLGTQVTVSS", "polyreactivity (PSR sort gate)": "high polyreactivity"}, {"sequence": "QVQLVESGGGLVQAGGSLRLSCAASGYSFVRNAMGWYIQAPGKERELVAAISGSGGSTYYADSVKGRFTISRDNAKNTVYLQMNSLKPEDTAVYYCAADYATVTWRGIAYDYWGQGTQVTVSS", "polyreactivity (PSR sort gate)": "low polyreactivity"}, {"sequence": "QVQLVESGGGLVQAGGSLRLSCAASGYTFAANAMGWYRQSPGKERELVAAITSGGGSTYYADSVKGRFTISRDNAKNTVYLKMNSLNPEDTAVDYCAALQSHGVDFDNWGQGTQVTVSS", "polyreactivity (PSR sort gate)": "low polyreactivity"}, {"sequence": "QVQLVESGGGLVQAGGSLRLSCAASGYTFAGYAMGWYRQAPGKERELVAAISQSGGRTYYADSVKGRFTISRDNAKNTVYLQMNSLKPEDTAVYYCNARAYYAGTYYVSRYYYWGQGTQVTVSS", "polyreactivity (PSR sort gate)": "high polyreactivity"}, {"sequence": "QVQLVESGGGLVQAGGSLRLSCAASGYTFAGYAMGWYRQAPGKERELVAAISSSGGRTYYADSVKGRFTISRDNAKNTVDLQINSLKPEDTAVYYCAAYVWAYYVPYNYGYWGQGTQVTVSS", "polyreactivity (PSR sort gate)": "high polyreactivity"}, {"sequence": "QVQLVESGGGLVQAGGSLRLSCAASGYTFASYDMGWYRQAPGKERELVAAIDWSGGSTYYADSVKGRFTISRDNAKNTVYLQMNSLKPEDTAVYYCAAERPWTYGSDGMDFWGQGTQVTVSS", "polyreactivity (PSR sort gate)": "low polyreactivity"}, {"sequence": "QVQLVESGGGLVQAGGSLRLSCAASGYTFAWYAMGWYRQAPGKERELVAAITTSGGGTYYADSVKGRFTISRDNAKNTVYLQMNSLKPEDTAVYYCAADTWRDGDDYWGQGTQVTVSS", "polyreactivity (PSR sort gate)": "low polyreactivity"}, {"sequence": "QVQLVESGGGLVQAGGSLRLSCAASGYTFDANDMGWYRQAPGTERELVARITWTGGNTYADSVKGRFTISRDNAKNTVYLQMNSLKPEDTAVYYCNAELGYVSSENYWGQGTQVTVTS", "polyreactivity (PSR sort gate)": "low polyreactivity"}, {"sequence": "QVQLVESGGGLVQAGGSLRLSCAASGYTFDGYAMGWYRPAPGKERELVAAINSGGGTYYADSVKGRFTISRDYAKNTVYLQMNSLIPDDTAVYYCNKKAYRKTGLDYWGQGTQVTVSS", "polyreactivity (PSR sort gate)": "low polyreactivity"}, {"sequence": "QVQLVESGGGLVQAGGSLRLSCAASGYTFDGYAMGWYRQAPGKERELVAVITKSGGRKYYADSVKGRFTISRDNAKNTVYLQMNSLKREVTAVYYCAADDSGTKDIVEGEYWGQGTQVTVSS", "polyreactivity (PSR sort gate)": "high polyreactivity"}, {"sequence": "QVQLVESGGGLVQAGGSLRLSCAASGYTFDKYAMGWYRQAPGKERELVAAISSGGRTYYADSVKGRFTISRDNAKKTVYLQMNSLKPEDTAVYYCAKGSAGRGMDSWGQGTQVTVSS", "polyreactivity (PSR sort gate)": "low polyreactivity"}, {"sequence": "QVQLVESGGGLVQAGGSLRLSCAASGYTFDPYDMGRYRQAPGKERELVASISWSGGDTYYADSVKGRFTISRDNAKNTVYLQMNSLKPEDTAVYYCAADRYIPRSIIMDYWGQGTQVTVSS", "polyreactivity (PSR sort gate)": "low polyreactivity"}, {"sequence": "QVQLVESGGGLVQAGGSLRLSCAASGYTFDSYTMGWYRQAPGKERELFAAITRSGSSTYYADSVKGRFTISRDNAKNTVYLLMNSLKPEDTAVYYCAAGWRRAAGIQYWYGYWGQGTQVTVSS", "polyreactivity (PSR sort gate)": "high polyreactivity"}, {"sequence": "QVQLVESGGGLVQAGGSLRLSCAASGYTFEFNVMGWYRQAPGKERELVASIRWGSTSYADSVKGRFTISRDNAKNTVYLQMNSLKPEDTAVYYCAAVTYDYWGQGTQVTVSS", "polyreactivity (PSR sort gate)": "low polyreactivity"}, {"sequence": "QVQLVESGGGLVQAGGSLRLSCAASGYTFFFYAMGWYRQAPGKEREFVAAITWRGDSTYYADSVKGRFTISRDNAKNTVYLQMNSLKPEDTAVYYCAADPGFTWSRRMDYWGQGTQVTVSS", "polyreactivity (PSR sort gate)": "low polyreactivity"}, {"sequence": "QVQLVESGGGLVQAGGSLRLSCAASGYTFFHNAMGWYRQAPGKERELVATISRGGGSTYYADSVKGRFTISRDNAKNTVYLQMNSLKPEDTAVYYCNKGVITYRRGYWGQGTQVTVSS", "polyreactivity (PSR sort gate)": "low polyreactivity"}, {"sequence": "QVQLVESGGGLVQAGGSLRLSCAASGYTFFRYAMGWYRQAPGKERELVAAITGSGGRTYYADSVKGRFTISRDNAKNTVYLQMNSLKPEDTAVYYCNRYGSGHSFIYDYWGQGTQVTVSS", "polyreactivity (PSR sort gate)": "high polyreactivity"}, {"sequence": "QVQLVESGGGLVQAGGSLRLSCAASGYTFGKYVMGWYRQAPGKERELVAAISISGSGTYYADSVKGRFTISRDNAKNTVYLQMNSLKPEDTAVYYCAARGYGFPELDYWGQGTQVTLSS", "polyreactivity (PSR sort gate)": "high polyreactivity"}, {"sequence": "QVQLVESGGGLVQAGGSLRLSCAASGYTFGTYAMGWYRQAPGKERELVATISIGGITYYADSVKGRFTISRDNAKNTVYLQMNSLIPEDTAVYYCAKAVTDPTSRSDPTGDDYWGQGTQVTVSS", "polyreactivity (PSR sort gate)": "low polyreactivity"}, {"sequence": "QVQLVESGGGLVQAGGSLRLSCAASGYTFGTYDMGWYRQAPGKERELVAAISIGGSTNYADSVKGRFTISRDNAKNTVYLQKNSLKPEDTAVYYCAAEVNVGTLLLSVIVEDGDYWGQGTQVTVSS", "polyreactivity (PSR sort gate)": "low polyreactivity"}, {"sequence": "QVQLVESGGGLVQAGGSLRLSCAASGYTFGYNVMGWYRQAPGKERELVAVISSGGTTYYADSVKGRFTISRDNAKNTVYLQMNSLKPEDTAVYYCNKRSAYKFSTHYGYYYWGQGTQVNVSS", "polyreactivity (PSR sort gate)": "high polyreactivity"}, {"sequence": "QVQLVESGGGLVQAGGSLRLSCAASGYTFGYYAMGWYRQAPGKERELVAAISLNGGSTYYADSVKGRFTISRDNAKNTVYLQMNSLKPEDSAVYYCNALYNYAEIYGRGYCGQGTQVTVSS", "polyreactivity (PSR sort gate)": "high polyreactivity"}, {"sequence": "QVQLVESGGGLVQAGGSLRLSCAASGYTFIHNAMGWYRQAPGKERELVAAINRSGAITNYADSVKGRFTISRDNAKNTVYLQMNSLKPEDTAVYYCNADVDPLPPRYLHREVLKEYNYWGQGTQVTVSS", "polyreactivity (PSR sort gate)": "low polyreactivity"}, {"sequence": "QVQLVESGGGLVQAGGSLRLSCAASGYTFKSYFTGWYRQAPAKERELVAAITSIGGSTYYADSVKGRFTISRDNAKNTVYFLMNSVKPEDTEVYYCAKRRRGYAFSSDYWGPGTQVTVSS", "polyreactivity (PSR sort gate)": "high polyreactivity"}, {"sequence": "QVQLVESGGGLVQAGGSLRLSCAASGYTFKYYAMAWYRQAPGKERELVAAITRSGGGTYYADSVKGRFTISRDNAKNTVYLQMNSLKPEDTAVYYCKAVLSSHGTDAGSYSYDYWGQGTQVTVSS", "polyreactivity (PSR sort gate)": "high polyreactivity"}, {"sequence": "QVQLVESGGGLVQAGGSLRLSCAASGYTFLDYAMAWYRQAPGKERELVAAINSGGSTYYADSVKGRFTISRDNAKNTVYLQMNSLKPEDTAVYYCAREDYVSYRLLYYLFDYWGQGTQVTVSS", "polyreactivity (PSR sort gate)": "low polyreactivity"}, {"sequence": "QVQLVESGGGLVQAGGSLRLSCAASGYTFLRNAMGWYRQAPGKERELVAAISYSGGGTYYPDSVMGRFTISRDHAKNTVYLKMNSLKPEDTAVYYCNVAQRYYGNFFSSRYESWGQGTQVTVSS", "polyreactivity (PSR sort gate)": "low polyreactivity"}, {"sequence": "QVQLVESGGGLVQAGGSLRLSCAASGYTFLYYAMGWYRQAPGKERELVAAISSDGTTNYADSVKGRFTISRDNAKNTVYLQMNSLKPQVTAVYYCAADVFNWGYYYWGQGTQVTVSS", "polyreactivity (PSR sort gate)": "low polyreactivity"}, {"sequence": "QVQLVESGGGLVQAGGSLRLSCAASGYTFNDYAMGWYRQARGKERELVASISSGGSTYYADSVKGRFTISRDNAKNTVYLQMNSLKPEDTAVYYCAAEWHYIYAYDYWGQGTQVTVSS", "polyreactivity (PSR sort gate)": "low polyreactivity"}, {"sequence": "QVQLVESGGGLVQAGGSLRLSCAASGYTFNRYAMGWYRQAPGKERELVAAISKRGGSTNYADSVKGRFTISRDNAKNTVYLQMNSLKPEDTAVYYCAKRWRSYSRGGDYWGQGTQVTVSS", "polyreactivity (PSR sort gate)": "high polyreactivity"}, {"sequence": "QVQLVESGGGLVQAGGSLRLSCAASGYTFNYYAMGWSRQAPGKEREFVASTYADSVKGRFTISRDNAKNTVYLQMNSLKPEDTAVYYCAAEGSYPAYDYWGQGTQVTVSS", "polyreactivity (PSR sort gate)": "low polyreactivity"}, {"sequence": "QVQLVESGGGLVQAGGSLRLSCAASGYTFNYYAMGWYRQAPGKERELVAAIRSGGSTTYADSVKGRFTISRDNAKNTVYLQMNSLKPEDTAVYYCNADAGYWYRPAYDYWGQGTQVTVSS", "polyreactivity (PSR sort gate)": "low polyreactivity"}, {"sequence": "QVQLVESGGGLVQAGGSLRLSCAASGYTFPLYAMGWYRQAPGKERELVADINIGGASTYYADSVKGRFTISRDNAKNTFYLQMKSLKPEDTAVYYCAKEYFDGFFPTFYYDYWGQGTQVTVSS", "polyreactivity (PSR sort gate)": "low polyreactivity"}, {"sequence": "QVQLVESGGGLVQAGGSLRLSCAASGYTFPLYAMGWYRQAPGKERELVADINIGGASTYYADSVKGRFTISRDNAKNTVYLQMNSLKPEDTAVYYCAADSRKRQGYGYWGQGTQVTVSS", "polyreactivity (PSR sort gate)": "low polyreactivity"}, {"sequence": "QVQLVESGGGLVQAGGSLRLSCAASGYTFPRYAMGWYRQAPGKERELVAAISRRGGSTYYADSVKGRFTISRDNAKNTVYLQMNSLKPEDTAVYYCAAATRQGYYSGSTRYDYWGQGTQVTVSS", "polyreactivity (PSR sort gate)": "high polyreactivity"}, {"sequence": "QVQLVESGGGLVQAGGSLRLSCAASGYTFPRYTMGWYRQAPGKERELVAAINWSGGSTYYADSVKGRFTISRDNAKNTVYLQMNSLKPEDTAVYYCAAPVFHLYTDRMGYWGQGTQVTVSS", "polyreactivity (PSR sort gate)": "high polyreactivity"}, {"sequence": "QVQLVESGGGLVQAGGSLRLSCAASGYTFPTNAMGWYRQAPGKERELVAAISIDDGITYYADSVKGRFTISRDNAKNTVYLQMNSLKPEDTAVYYCSAEVGIEYEYWGQGTQVTVSS", "polyreactivity (PSR sort gate)": "high polyreactivity"}, {"sequence": "QVQLVESGGGLVQAGGSLRLSCAASGYTFPYYTMGWYRQAPGKERELVAAISSGGRTKYADSVKGRFTISRDNANNSVYVQMNSLKPEDTAVYYCSARSSYSFAFFWPAYNYWGQGTQVTVSS", "polyreactivity (PSR sort gate)": "high polyreactivity"}, {"sequence": "QVQLVESGGGLVQAGGSLRLSCAASGYTFQSYAMAWYRQAPWKERELVAAIRYSGGSTYADSVKGRFTISRDNAKNTVYLQMNSLKPEDTAVYYCAARSNSLLFDYWGQGTQVTVSS", "polyreactivity (PSR sort gate)": "low polyreactivity"}]}]}
